Test results taken from patent publication US7109299 (dated 2006).
Bridge positions count the residues as written; N and C are the ends. Square brackets hold non-standard residues; d marks the D form. Ends that are not written are not given here. Dap = NC[C@H](N)C(=O)O; Ahx = NCCCCCC(=O)O

T1: native IL-5R α/β complex on cells (TF-1 cells; human eosinophils) (human, UniProt Q01344 21-420; P32927 17-897)
T1 sequence (looked up) 1: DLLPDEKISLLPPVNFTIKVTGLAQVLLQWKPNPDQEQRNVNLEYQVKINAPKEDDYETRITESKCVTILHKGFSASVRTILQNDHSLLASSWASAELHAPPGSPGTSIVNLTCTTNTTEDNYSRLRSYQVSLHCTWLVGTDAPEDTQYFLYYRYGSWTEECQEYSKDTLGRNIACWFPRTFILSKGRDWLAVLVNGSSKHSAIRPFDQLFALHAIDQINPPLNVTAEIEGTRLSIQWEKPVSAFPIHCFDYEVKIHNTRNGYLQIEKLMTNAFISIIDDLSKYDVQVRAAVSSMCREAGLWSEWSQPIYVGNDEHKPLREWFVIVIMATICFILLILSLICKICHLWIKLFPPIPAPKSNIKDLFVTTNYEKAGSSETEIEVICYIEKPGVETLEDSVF
T1 sequence (looked up) 2: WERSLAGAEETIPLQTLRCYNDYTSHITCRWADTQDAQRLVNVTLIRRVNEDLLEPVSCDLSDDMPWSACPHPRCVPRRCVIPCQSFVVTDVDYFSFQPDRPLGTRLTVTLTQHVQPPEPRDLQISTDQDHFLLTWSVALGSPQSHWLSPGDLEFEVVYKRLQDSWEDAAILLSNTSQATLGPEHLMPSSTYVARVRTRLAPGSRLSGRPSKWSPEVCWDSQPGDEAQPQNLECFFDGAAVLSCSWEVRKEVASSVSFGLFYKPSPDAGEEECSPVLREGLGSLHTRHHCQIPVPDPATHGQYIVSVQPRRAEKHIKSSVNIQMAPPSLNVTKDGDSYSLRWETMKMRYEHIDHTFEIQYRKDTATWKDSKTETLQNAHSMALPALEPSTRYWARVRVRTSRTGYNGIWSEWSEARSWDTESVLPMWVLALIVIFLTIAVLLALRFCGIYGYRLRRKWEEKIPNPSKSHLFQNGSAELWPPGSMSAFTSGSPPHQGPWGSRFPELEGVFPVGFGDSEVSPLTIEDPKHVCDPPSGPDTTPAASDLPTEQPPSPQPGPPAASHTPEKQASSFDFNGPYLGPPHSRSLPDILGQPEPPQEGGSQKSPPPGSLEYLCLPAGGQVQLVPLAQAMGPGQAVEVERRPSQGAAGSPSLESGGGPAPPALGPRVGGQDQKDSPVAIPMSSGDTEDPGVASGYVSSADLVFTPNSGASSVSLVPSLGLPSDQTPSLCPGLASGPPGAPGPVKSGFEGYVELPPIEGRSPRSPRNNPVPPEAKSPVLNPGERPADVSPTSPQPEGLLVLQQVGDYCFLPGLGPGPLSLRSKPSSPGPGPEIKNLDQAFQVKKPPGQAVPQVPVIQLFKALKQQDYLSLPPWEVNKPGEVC

T2: IL-5RαECD, extracellular domain (ECD) of the human IL-5 receptor α chain, soluble (human, UniProt Q01344 21-342)
T2 construct: extracellular domain; Captured through mAb 179 (anti-HPAP tail) in the plate, SPA and bead assays; also called soluble IL-5Rα; IL-5 receptor alpha chain extracellular domain
T2 sequence (Q01344 whole entry, looked up): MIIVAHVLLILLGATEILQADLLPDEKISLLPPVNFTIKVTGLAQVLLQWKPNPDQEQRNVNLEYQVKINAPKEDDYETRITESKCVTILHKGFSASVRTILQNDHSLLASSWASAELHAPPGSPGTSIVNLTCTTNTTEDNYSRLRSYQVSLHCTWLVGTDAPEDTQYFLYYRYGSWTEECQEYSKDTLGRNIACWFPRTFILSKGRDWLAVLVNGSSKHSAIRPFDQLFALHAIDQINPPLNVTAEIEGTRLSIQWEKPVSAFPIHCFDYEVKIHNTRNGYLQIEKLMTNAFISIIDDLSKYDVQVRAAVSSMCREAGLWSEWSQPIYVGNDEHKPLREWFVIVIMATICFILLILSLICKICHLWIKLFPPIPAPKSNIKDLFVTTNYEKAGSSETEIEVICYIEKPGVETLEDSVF

B1: dimer of (H)-EGYVCVEWARCPTCG-(NH2) (peptide)
peptide: H-EGYVCVEWARCPTCG-NH2
modifications: disulfide (positions not given here); also: dimer, intramolecular and intermolecular disulfide linkages, places not given here
B2: dimer of (H)-EGYVCVEWARCPTCR-(OH) (peptide)
peptide: H-EGYVCVEWARCPTCR-OH
modifications: disulfide (positions not given here); also: dimer, intramolecular and intermolecular disulfide linkages, places not given here
B3: dimer of (Ac)-EGYVCVEWARCPTCK-(NH2) (peptide)
peptide: Ac-EGYVCVEWARCPTCK-NH2
modifications: disulfide (positions not given here); also: dimer, intramolecular and intermolecular disulfide linkages, places not given here
B4: dimer of (Ahx)-EGYVCVEWARCPTCR-(NH2) (peptide)
peptide: [Ahx]EGYVCVEWARCPTCR-NH2
modifications: disulfide (positions not given here); also: dimer, intramolecular and intermolecular disulfide linkages, places not given here
B5: dimer of (H)-GYVCVEWARCPTCR-(OH) (peptide)
peptide: H-GYVCVEWARCPTCR-OH
modifications: disulfide (positions not given here); also: dimer, intramolecular and intermolecular disulfide linkages, places not given here
B6: dimer of (H)-EGYVCVEWARCPTCR-(NH2) (peptide)
peptide: H-EGYVCVEWARCPTCR-NH2
modifications: disulfide (positions not given here); also: dimer, intramolecular and intermolecular disulfide linkages, places not given here
B7: dimer of two chains of residues 36-50 of SEQ ID NO: 9 (structure only in drawing CHEM-US-00014) (peptide)
peptide: Ac-EGYV[Dap]VEWARCPTCR-NH2
modifications: cysteine pairing not given here; also: homodimer, link between chains only in drawing
B8: dimer of (Ac)-EGYVCVEWAACPTCR-(NH2) (peptide)
peptide: Ac-EGYVCVEWAACPTCR-NH2
modifications: disulfide (positions not given here); also: dimer, intramolecular and intermolecular disulfides, places not given here
B9: dimer of (H)-EGYVCVEWARCPTCK-(OH) (peptide)
peptide: H-EGYVCVEWARCPTCK-OH
modifications: disulfide (positions not given here); also: dimer, intramolecular and intermolecular disulfide linkages, places not given here
B10: dimer of (Ac)-EGYVCVEWARCPTCR-(NH2) (peptide)
peptide: Ac-EGYVCVEWARCPTCR-NH2
modifications: disulfide (positions not given here); also: dimer, intramolecular and intermolecular disulfide linkages, places not given here
B11: dimer of (H)-EGYVCVEFARCPTCR-(OH) (peptide)
peptide: H-EGYVCVEFARCPTCR-OH
modifications: disulfide (positions not given here); also: dimer, intramolecular and intermolecular disulfide linkages, places not given here
B12: dimer of (H)-EGYVCVEFARCPTCG-(NH2) (peptide)
peptide: H-EGYVCVEFARCPTCG-NH2
modifications: disulfide (positions not given here); also: dimer, intramolecular and intermolecular disulfide linkages, places not given here
B13: dimer of (H)-GYVCVEFARCPTCG-(NH2) (peptide)
peptide: H-GYVCVEFARCPTCG-NH2
modifications: disulfide (positions not given here); also: dimer, intramolecular and intermolecular disulfide linkages, places not given here

Target: T1, native IL-5R α/β complex on cells (TF-1 …)
Assay: cell-based or functional assay

| Microphysiometer pIC50 (block of the TF-1 cell response to IL-5) | Binder |
| --- | --- |
| 9.6 | H-TGGGDGYVCVEWARCPTCK-OH (disulfide 15-18; also: homodimer via interchain Cys9-Cys9 disulfide) [AF18748, synthetic dimer of (H)-TGGGDGYVCVEWARCPTCK-(OH)] |
| 9.1 | B1 |
| 9.6 | B2 |
| 8.5 | B3 |
| 9 | B4 |
| 8.4 | B5 |
| 9.1 | B6 |
| 6.5 | B7 |
| 6.9 | B8 |
| 9.2 | B9 |
| 8.4 | B10 |

Target: T2, IL-5RαECD, extracellular domain (ECD) …
Assay: scintillation proximity competition assay, dimer against 20 pM [125I] IL-5 on IL-5Rα coated beads
Experimental: (§1) Binding affinities of synthetic peptides for IL-5Rα were measured in a scintillation proximity assay (SPA) using radio-iodinated IL-5. Streptavidin coated SPA beads (Amersham) were suspended in IL-5 binding buffer (phosphate buffered saline, 0.1% bovine serum albumin, 0.2% NaN_3) at 2 mg beads/ml of buffer. Biotinylated mAb 179 was adsorbed onto the beads at a ratio of 2 μg Ab/mg beads by incubating the beads and antibody with agitation for at least 2 h. at 4°. The beads were pelleted at 2500 rpm and resuspended at 2 mg/ml in binding buffer. Soluble IL-5Rα was then adsorbed onto the beads by diluting a solution of soluble receptor harvest 1:500 into the bead suspension and incubating with agitation for 2 hr at 4°. The beads were again pelleted at 2500 rpm and resuspended at 2 mg/ml in binding buffer. Competition binding assays were carried out in 100 μl reactions in white polystyrene microtiter plates. […] IL-5 (Amersham). The plates were incubated at room temperature for 1 hour with agitation, then centrifuged for 5 min at 1500 rpm followed by scintillation counting on a Topcount instrument (Packard). […] IL-5 bound in the absence of any competitor. […] IL-5 bound in the presence of 30 nM IL-5. […] IL-5 binding by 50% (IC$50$). In each instance, the dimer has both intramolecular and intermolecular disulfide linkages as shown generically below: […]

| SPA pIC50 | Binder |
| --- | --- |
| 9.1 | H-TGGGDGYVCVEWARCPTCK-OH (disulfide 15-18; also: homodimer via interchain Cys9-Cys9 disulfide) [AF18748, synthetic dimer of (H)-TGGGDGYVCVEWARCPTCK-(OH)] |
| 6.8 | B11 |
| 8.4 | B2 |

Target: IL-5RαECD, extracellular domain (ECD) of the human IL-5 receptor α chain, soluble (human, UniProt Q01344 21-342)
Assay: as above
Experimental: as §1

| SPA pIC50 | Binder |
| --- | --- |
| 6.6 | B12 |
| 8.2 | B5 |
| 8.7 | B9 |
| 6.1 | B13 |
